In EP4786494A1:

Key:
[1] = molecular target: human FGFR2 on cells (KATO-III gastric cancer cells; SNU-16 cells; Ba/F3 cells engineered to express human FGFR2b) (human) (UniProt P21802); experiment: flow cytometry on KATO-III cells expressing human FGFR2
[2] = molecular target: human FGFR2-his protein (huFGFR2-his) (human); experiment: BLI epitope binning on FGFR2-his (HISK sensor), 200 nM antibodies; competitor: huG11B8-5
[3] = molecular target: human FGFR2-his protein (huFGFR2-his) (human); experiment: BLI epitope binning on FGFR2-his (HISK sensor), 200 nM antibodies; competitor: bemarituzumab
[4] = molecular target: human FGFR2-his protein (huFGFR2-his) (human); experiment: BLI epitope binning on FGFR2-his (HISK sensor), 200 nM antibodies; competitor: huA1B2-3

human FGFR2-his protein (huFGFR2-his) (human), sequence (chain, as listed by the source limits assumed): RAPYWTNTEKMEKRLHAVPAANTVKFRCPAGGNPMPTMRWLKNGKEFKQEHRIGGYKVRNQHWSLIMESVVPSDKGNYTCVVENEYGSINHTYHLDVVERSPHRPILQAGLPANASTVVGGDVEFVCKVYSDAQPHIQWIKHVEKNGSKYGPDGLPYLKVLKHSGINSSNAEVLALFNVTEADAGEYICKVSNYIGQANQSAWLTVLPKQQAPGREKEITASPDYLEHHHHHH

Row | Binder | EC50 [1] | epitope binning value (%), not given [2] | epitope binning value (%), not given [3] | epitope binning value (%), not given [4]
1 | bemarituzumab (antibody, human IgG1, kappa, V domains shown) VH: QVQLVQSGAEVKKPGSSVKVSCKASGYIFTTYNVHWVRQAPGQGLEWIGSIYPDNGDTSYNQNFKGRATITADKSTSTAYMELSSLRSEDTAVYYCARGDFAYWGQGTLVTVSS VL: DIQMTQSPSSLSASVGDRVTITCKASQGVSNDVAWYQQKPGKAPKLLIYSASYRYTGVPSRFSGSGSGTDFTFTISSLQPEDIATYYCQQHSTTPYTFGQGTKLEIKR |  | 36.8% | 7.8% | 106%
2 | antibody F6B6 (murine chimeric anti-FGFR2 antibody) (antibody, human IgG1, kappa, V domains shown) VH: QVQLKQSGPGLVQPSQSLSITCTVSGFSLTNYGVHWVRQSPGKGLEWLGVIWSDGSTDYDAAFISRLSISTDNSKSQVFFKMNSLQAADTAIYYCARKGDYDYDNYAMDYWGQGTSVTVSS VL: DVVITQSPATLSVTPGDSVSLSCRASQSISNNLHWYQQKSHESPRLLIKYASQSISGIPSRFSGSGSGTDFTLSINSVETEDFGMYFCQQSNSWPLTFGAGTKLELKR | 14.4 nM |  |  | 
3 | humanized monoclonal antibody huA1B2-3 (antibody, human IgG1, kappa, V domains shown) VH: EVQLVQSGAEVKKPGATVKISCKASGFNIKDYYMHWVQQAPGKGLEWMGRIDPEDGDTEYAEKFQGRVTITADTSTNTAYMELSSLRSEDTAVYYCTTYYYVSTYEDYWGQGTTVTVSS VL: EIVLTQSPATLSLSPGERATLSCRASSSVSHMHWYQQKPGQAPKLLIYSTSNLASGVPARFSGSGSGTDYTLTISSLEPEDFAVYYCHHWSSWTFGGGTKVEIKR |  | 42.6% | 95.7% | 10.2%

Further binders by falling EC50 [1], results first:

Row | EC50 [1] | epitope binning value (%), not given [2] | epitope binning value (%), not given [3] | epitope binning value (%), not given [4] | Binder
4 | 7.37 nM |  |  |  | antibody D12D8 (murine chimeric anti-FGFR2 antibody) (antibody, human IgG1, kappa, V domains shown) VH: QVQLQQSGAELARPGASVKLSCKASGYTFTNYGISWVKQRTGQGLEWIGEIYPRSGNTYYNEKFKGKATLTADKSSSTAYMELRSLTSEDSAVYFCARGDYSNSDYWGQGTTLTVSS VL: DIQMTQTTSSLSASLGDRVTISCRASQDITDHLNWYQQKPDGTVKLLIYYTSRLHSGVPSRFSGSGSGTDYSLTISNLEQEDIATYFCQQGNTLPRTFGGGTKLEIKR
5 | 1.09 nM |  |  |  | antibody H3F7-a (murine chimeric anti-FGFR2 antibody) (antibody, human IgG1, kappa, V domains shown) VH: EVQLQQSGPELVKPGASVKIPCKASGYTFTDYNMDWVKQSHGKSLEWIGDINPKNGETFYNQKFKGKATLTVDRSSSTAYMELRSLTSEDTAVYFCAKRDLNWYFDYWGQGTTLTVSS VL: DIQMTQSSSYLSVSLGGRVTITCKASDHINNWLAWYQQKPGNAPRLLISGATSLETGVPSRFSGSGSGKDYTLSITSLQTEDVATYYCQQYWSTPWTFGGGTKLEIKR
6 | 0.949 nM |  |  |  | antibody G11B8 (murine chimeric anti-FGFR2 antibody) (antibody, human IgG1, kappa, V domains shown) VH: EVQLQQSGPELVKPGASVKIPCKASGYTFTDYNMDWVKQSHGKSLEWIGDINPKNGETFYNQKFKGKATLTVDRSSNTAYMELRSLTSEDTAVYFCAKRDLNWYFDYWGQGTTLTVSS VL: DIQMTQSSSYLSVSLGGRVTITCKASDHINNWLAWYQQKPGNAPRLLISGATSLETGVPSRFSGSGSGKDYTLSITSLQTEDVATYYCQQYWSTPWTFGGGTKLEIKR
7 | 0.336 nM |  |  |  | antibody A1B2 (murine chimeric anti-FGFR2 antibody) (antibody, human IgG1, kappa, V domains shown) VH: EVQLQQSGAELVRPGASVKLSCTASGFNIKDYYMHWVKQRPEQGLEWIGRIDPEDGDTEYAPKFQGKATMTADTSSNTAYLQLSSLTSEDTAVYYCTTYYYVSTYEDYWGQGTTLTVSS VL: QIVLTQSPAIMSASLGEEITLTCSASSSVSHMHWYQQKSGTSPKLLIYSTSNLASGVPSRFSGSGSGTFYSLTISSVEAEDAADYYCHHWSSWTFGGGTKLEIKR
